Reference: article PMC10039853
Positions count from the first letter of the chain named. Names and notes keep the numbering of the source. Values belong to the binder of their own block, whether it stands above or below them.

Legend:
hen egg lysozyme, P00698 [1] = assay: SPR; conditions: chain shown with the change;, read off a plot
hen egg lysozyme, P00698 [2] = assay: ELISA; conditions: chain shown with the change;, read off a plot

Sequence of hen egg lysozyme, P00698 (P00698 19-147): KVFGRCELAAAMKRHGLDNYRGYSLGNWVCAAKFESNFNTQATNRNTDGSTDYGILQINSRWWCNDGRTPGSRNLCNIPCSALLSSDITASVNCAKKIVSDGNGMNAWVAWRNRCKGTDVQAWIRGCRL

B2: anti-lysozyme VHH D3-L11, wild type A79N (protein)
chain: DVQLVESGGGSVQAGGSLRLSCAASGSTDSIEYMTWFRQAPGKAREGVAALYTHTGNTYYTDSVKGRFTISQDKAKNMNYLRMDSVKSEDTAIYTCGATRKYVPVRFALDQSSYDYWGQGTQVTVSS
Kd (hen egg lysozyme, P00698 [1]; parent: est. 3.1e-12): 0.0081 nM | EC50 (hen egg lysozyme, P00698 [2]; parent: est. 0.92): 6.7 µg/mL

B3: anti-lysozyme VHH D3-L11, wild type G26I (protein)
chain: B2 chain with G26I, N79A
Kd (hen egg lysozyme, P00698 [1]; parent: est. 3.3 pM): 0.026 nM

B5: anti-lysozyme VHH D3-L11, wild type A79S (protein)
chain: B2 chain with N79S
Kd (hen egg lysozyme, P00698 [1]; parent: est. 3.1e-12): 0.012 nM | EC50 (hen egg lysozyme, P00698 [2]; parent: est. 0.92): 7.6 µg/mL

B6: anti-lysozyme VHH D3-L11, wild type A79C (protein)
chain: B2 chain with N79C
Kd (hen egg lysozyme, P00698 [1]; parent: est. 3.1e-12): 0.0037 nM | EC50 (hen egg lysozyme, P00698 [2]; parent: est. 0.92): 10 µg/mL

B8: anti-lysozyme VHH D3-L11, wild type A79T (protein)
chain: B2 chain with N79T
Kd (hen egg lysozyme, P00698 [1]; parent: est. 3.1e-12): 0.013 nM

B9: anti-lysozyme VHH D3-L11, wild type A79R (protein)
chain: B2 chain with N79R
Kd (hen egg lysozyme, P00698 [1]; parent: est. 3.1e-12): 0.026 nM | EC50 (hen egg lysozyme, P00698 [2]; parent: est. 0.92): 31 µg/mL

B16: anti-lysozyme VHH D3-L11, wild type A79Q (protein)
chain: B2 chain with N79Q
Kd (hen egg lysozyme, P00698 [1]; parent: est. 3.1e-12): 0.0072 nM | EC50 (hen egg lysozyme, P00698 [2]; parent: est. 0.92): 9.5 µg/mL

Further lines, results first:

Kd (hen egg lysozyme, P00698 [1]; parent: est. 3.1e-12): 0.0067 nM | EC50 (hen egg lysozyme, P00698 [2]; parent: est. 0.92): 1.5 µg/mL
B1: anti-lysozyme VHH D3-L11, wild type A79L (protein)
chain: B2 chain with N79L

Kd (hen egg lysozyme, P00698 [1]; parent: est. 3.1e-12): 0.012 nM | Kd (hen egg lysozyme, P00698 [1]; parent: est. 3.3 pM): 0.012 nM
B4: anti-lysozyme VHH D3-L11, wild type A79F (protein)
chain: B2 chain with N79F

Kd (hen egg lysozyme, P00698 [1]; parent: est. 3.1e-12): 0.0049 nM | EC50 (hen egg lysozyme, P00698 [2]; parent: est. 0.92): 0.92 µg/mL
B7: anti-lysozyme VHH D3-L11, wild type A79I (protein)
chain: B2 chain with N79I

Kd (hen egg lysozyme, P00698 [1]; parent: est. 3.3 pM): 0.0062 nM | EC50 (hen egg lysozyme, P00698 [2]; parent: est. 0.90): 3.2 µg/mL
B10: anti-lysozyme VHH D3-L11, wild type G97F (protein)
chain: B2 chain with N79A, G97F

Kd (hen egg lysozyme, P00698 [1]; parent: est. 3.1e-12): 0.0068 nM | EC50 (hen egg lysozyme, P00698 [2]; parent: est. 0.92): 4.2 µg/mL
B11: anti-lysozyme VHH D3-L11, wild type A79M (protein)
chain: B2 chain with N79M

Kd (hen egg lysozyme, P00698 [1]; parent: est. 3.1e-12): 0.015 nM | EC50 (hen egg lysozyme, P00698 [2]; parent: est. 0.92): 1900 µg/mL
B12: anti-lysozyme VHH D3-L11, wild type A79W (protein)
chain: B2 chain with N79W

Kd (hen egg lysozyme, P00698 [1]; parent: est. 3.1e-12): 0.023 nM | EC50 (hen egg lysozyme, P00698 [2]; parent: est. 0.92): 120 µg/mL
B13: anti-lysozyme VHH D3-L11, wild type A79H (protein)
chain: B2 chain with N79H

Kd (hen egg lysozyme, P00698 [1]; parent: est. 3.3 pM): 0.045 nM
B14: anti-lysozyme VHH D3-L11, wild type A24L (protein)
chain: B2 chain with A24L, N79A

Kd (hen egg lysozyme, P00698 [1]; parent: est. 3.1e-12): 0.0055 nM
B15: anti-lysozyme VHH D3-L11, wild type A79Y (protein)
chain: B2 chain with N79Y

Kd (hen egg lysozyme, P00698 [1]; parent: est. 3.1e-12): 0.0036 nM | EC50 (hen egg lysozyme, P00698 [2]; parent: est. 0.92): 2.5 µg/mL
B17: anti-lysozyme VHH D3-L11, wild type A79V (protein)
chain: B2 chain with N79V
